In series [1] the target is A3GCTD WT (A3G191-384-2K3A) (Homo sapiens, UniProt Q9HC16 191-384, L234K;C243A;F310K;C321A;C356A). In words: single-turnover deamination kinetics (kobs vs [E], hyperbolic fit); Kinetic Kd: 20 mM Tris pH 8.0, 1 mM DTT, 37 C, 1-50 uM enzyme, 40 nM DNA; SEC/complex: 50 mM Tris pH 7.0, 100 mM NaCl, 0.1 mM TCEP (stated for the Pot1-A3GCTD gel filtration); crystals 20 C, 100 mM HEPES pH 7, 200 mM LiCl, 20% PEG 6000. The conditions noted are these: protein: recombinant; tags: His6-MBP tag removed by SARS-CoV Mpro; label: 5' 32P; single strand.

For series [2], the target named is Pot1-A3GCTD fusion (Pot1A3GCTD) (Schizosaccharomyces pombe (Pot1) / Homo …, UniProt O13988 1-185+Q9HC16:195-384, L234K;C243A;F310K;C321A;C356A;internal_change). Nature of the series: size exclusion chromatography; Kinetic Kd: 20 mM Tris pH 8.0, 1 mM DTT, 37 C, 1-50 uM enzyme, 40 nM DNA; SEC/complex: 50 mM Tris pH 7.0, 100 mM NaCl, 0.1 mM TCEP (stated for the Pot1-A3GCTD gel filtration); crystals 20 C, 100 mM HEPES pH 7, 200 mM LiCl, 20% PEG 6000. The settings on record: protein: recombinant; tags: His6-Staph nuclease tag removed by SARS-CoV Mpro; single strand. On the technique in general: In gel filtration, larger molecules generally elute earlier.
Pot1-A3GCTD fusion (Pot1A3GCTD), sequence (O13988 other isoform, or with tags, fused parts or gaps L234K;C243A;F310K;C321A;C356A;): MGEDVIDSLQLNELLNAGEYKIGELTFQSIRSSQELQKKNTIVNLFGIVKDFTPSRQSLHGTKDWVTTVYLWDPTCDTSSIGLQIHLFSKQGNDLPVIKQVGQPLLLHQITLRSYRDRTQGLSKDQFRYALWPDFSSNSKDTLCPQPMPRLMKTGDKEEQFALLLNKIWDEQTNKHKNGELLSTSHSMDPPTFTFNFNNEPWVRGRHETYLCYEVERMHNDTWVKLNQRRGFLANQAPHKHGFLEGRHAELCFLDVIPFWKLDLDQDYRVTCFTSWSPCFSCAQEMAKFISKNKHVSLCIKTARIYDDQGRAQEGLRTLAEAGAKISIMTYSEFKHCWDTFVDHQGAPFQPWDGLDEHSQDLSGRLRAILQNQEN

A3GCTD WT (A3G191-384-2K3A), sequence (Q9HC16 191-384 L234K/C243A/F310K/C321A/C356A, one chain of several): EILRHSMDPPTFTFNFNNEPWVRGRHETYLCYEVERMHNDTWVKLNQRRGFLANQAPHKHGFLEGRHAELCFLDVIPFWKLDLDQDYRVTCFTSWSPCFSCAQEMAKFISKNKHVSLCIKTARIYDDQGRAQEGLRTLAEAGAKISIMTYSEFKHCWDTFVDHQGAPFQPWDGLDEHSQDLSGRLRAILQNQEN

B1: CCCA 30-mer (ssDNA)
DNA: TAGAAAGGGAGACCCAAAGAGGAAAGGTGA
The term Kd denotes a measure of binding affinity in units of concentration. In the case of B1, the Kd in series [1] amounted to 26 µM.

B2: 30nt Pot1/A3G substrate (CCCA + GGTTAC) (ssDNA)
DNA: AGAAGACCCAAAGAAGAGGAAGCAGGTTAC
On to B2, for which the binding result in series [2] is reported as “binds”.

These data come from article PMC5875850, “Insights into DNA substrate selection by APOBEC3G from structural, biochemical, and functional studies”.
